Biological target: chimera of the human sst5 receptor with the carboxyl-terminal tail of the human sst2 receptor (hsst5-sst2CT) (human)
Assay: radioligand binding; competition against 0.05 nM [125I-Tyr11]-SS-14 on membrane preparations (30 µg protein) of stably transfected HEK293 cells; competitor 10^-12 to 10^-6 M; 10 mM HEPES, 5 mM MgCl2, 5 µg/ml bacitracin, pH 7.5; 45 min, room temperature; vacuum filtration

- IC50: 30.3 nM
Substance: Somatostatin (SS-14) (from UniProt P61278 103-116) (peptide)

Reference: article PMC3383726
